We go through 3 molecules from article PMC7347944 (Communications Biology, 2020).

The chains are these.
B1: full-length huPrP(23−230) (natural protein)
chain: not shown
B2: huPrP(23−144) (domain or fragment)
chain: KKRPKPGGWNTGGSRYPGQGSPGGNRYPPQGGGGWGQPHGGGWGQPHGGGWGQPHGGGWGQPHGGGWGQGGGTHSQWNKPSKPKTNMKHMAGAAAAGAVVGGLGGYMLGSAMSRPIIHFGSD
B3: huPrP(23−111) (domain or fragment)
chain: KKRPKPGGWNTGGSRYPGQGSPGGNRYPPQGGGGWGQPHGGGWGQPHGGGWGQPHGGGWGQPHGGGWGQGGGTHSQWNKPSKPKTNMKH

This assay concerns the target T1, amyloid-β oligomers (UniProt P05067 672-713).
T1 construct: also called AβO; Aβ oligomers
As to the kind of experiment: co-sedimentation. The following applies: both partners purified.
As for B1, the binding result was “binds”.

Take B2: the binding result was “binds”.

For the molecule B3, the binding result is given as “binds”.
